Consider 42 variants from the RNAGym collection of RNA variant scans (doi:10.1073/pnas.2313332121).

The labels stand for the following.
B1: TPR t1 (parent)
chain: GACCAAUCUGCCCUCAGAGCUCGAGAACAUCUUCGGAUGCAGAGGAGGCAGGCUUCGGUGGCGCGAUAGCGCCAACGUCCUCAACCUCCAAUGCAUCCCACCACAUGAUGAUGCCUGAAGAGCCUUGGUUUUUUG

The variants in this data set derive from B1. As to the kind of experiment: polymerase ribozyme fitness, log enrichment relative to wild type (log ratio); higher = more active; in vitro selection for triplet polymerase activity. The method, boiled down: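 To select mutant libraries of each subunit of a heterodimeric triplet polymerase ribozyme, built by PCR and transcribed, each was annealed with a biotinylated primer, partner subunit and triplets, then incubated frozen at −7 °C. Extended constructs were gel-excised, captured on streptavidin beads and amplified by RT-PCR, in one round carried out in triplicate. Illumina sequencing of input and output libraries kept genotypes with ≥10 input reads and ≥1 read per output. Fitness is the base-2 logarithm of genotype enrichment relative to wild-type enrichment, from inverse-variance-weighted replicate averages.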
With GACCAAUCUGCCCUCAGAGCUCGAGAACAUCUUCGGAUGCAGAGGAGGCAGGCUUCGGUGGAGCGAUAGCGCCAACGUCCUCAACCUCCACUGCAUCGCACCACAUGAUGCUGCUUGUAGAACCUGGGUUUUUUG, the “polymerase ribozyme fitness (log ratio)” value was -7.7.

As to GACCAAUCUGCCCUCAGAGCUCGAGAACAUCUUCGGAUGCAGAGGAGGCAGGCUUCGGUGGAGCGAUAGCGCCAACGUCCUCAACCUCCAAUGCAUCCCACCACAUGAUGAUGCCUCAAGAGCCUUGGUUUUAUG, the “polymerase ribozyme fitness (log ratio)” value is -5.95.

As for GACCAAUCUGCCCUCAGAGCUCGAGAACAUCUUCGGAUGCAGAGGAGGCAGGCUUCGGUGUCGCGAUAGCGCCAACGCCCUCAACCUCCAAUGCAUCCCACCACAUGAUGAUGCCAGAAGAGCCUUGGUUUUUUG, the “polymerase ribozyme fitness (log ratio)” value was -2.17.

With GACCAAUCUGCCCUCAGAGCUCGAGAACAUCUUCGGAUGCAGAGGAGGCAGGCUUCGGUGGAGCGAUAGCGCCAACGUCCUGAACCUCCAAUGCAUCCCACCACAUGAUGAUGCCUAAAGAGCCUUGGUUUUUUG, the “polymerase ribozyme fitness (log ratio)” value is -3.75.

With GACCAAUCUGCCCUCAGAGCUCGAGAACAUCUUCGGAUGCAGAGGAGGCAGGCUUCGGUGGAGCGAUAGCGCCAACGUCCUCAACCUCCAAUGCAUCCCACCACAUGAUGAUCCCUGAAGAGCCUUGGUUUUUUG, the “polymerase ribozyme fitness (log ratio)” value was -3.31.

In the case of GACCAAUCUGCCCUCAGAGCUCGAGAACAUCUUCGGAUGCAGAGGAGGCAGGCUUCGGUGGAGCGAUAGCGCCAACGUCCUCAACCUCCAAUGCAUCCCACCACAUGAUGAUGCCUGAAGAGCCUUCGUUUUUUG, the “polymerase ribozyme fitness (log ratio)” value is -1.29.

As to GACCAAUCUGCCCUCAGAGCUCGAGAACAUCUUCGGAUGCAGAGGAGGCAGGCUUCGGUGGAGCGAUAGCGCCAACGUCCUCAACCUCCAAUGCAUCCCACCACAUGAUGAUGCCUGAAGAGCCUUAGUUUUUUG, the “polymerase ribozyme fitness (log ratio)” value was -2.22.

Turning to GACCAAUCUGCCCUCAGAGCUCGAGAACAUCUUCGGAUGCAGAGGAGGCAGGCUUCGGUGGAGCGAUAGCGCCAACGUCCUCAACAUCCAAUGCAUCCCACCACAUGAUGAUGCCUGAAGAGCCUUGGUUUUUUG, the “polymerase ribozyme fitness (log ratio)” value was -2.26.

Regarding GACCAAUCUGCCCUCAGAGCUCGAGAACAUCUUCGGAUGCAGAGGAGGCAGGCUUCGGUGGAGCGAUAGCGCCAACGUCCUAAACCUCCAAUGCAUCCCACCACAUGAUGAUGCCUGAAGGGCCUUGGUUUUUUG, the “polymerase ribozyme fitness (log ratio)” value was determined as 1.58.

As to GACCAAUCUGCCCUCAGAGCUCGAGAACAUCUUCGGAUGCAGAGGAGGCAGGCUUCGGUGUCGCGAUAGCGCCAACGUCCUCAACCUCCAAUGCAUCCCACCACAUGAAGAUGCCUGAAGAGCCUUGGUUUUUUG, the “polymerase ribozyme fitness (log ratio)” value is -3.77.

In the case of GACCAAUCUGCCCUCAGAGCUCGAGAACAUCUUCGGAUGCAGAGGAGGCAGGCUUCGGUGUCGCGAUAGCGCCAACGUCCUCAACCUCCAAUGCAUCCCACCACACGAUGAUGCCUGAAGAGCCUUGGUUUUUUG, the “polymerase ribozyme fitness (log ratio)” value amounted to 0.11.

On to GACCAAUCUGCCCUCAGAGCUCGAGAACAUCUUCGGAUGCAGAGGAGGCAGGCUUCGGUGGAGCGAUAGCGCCAACGUCCUCAACCUCCAGUGCAUCCCACCACAUGAUGAUGCCUGAAGAGCCUUGGUUUUUUG, for which the “polymerase ribozyme fitness (log ratio)” value is -2.78.

On to GACCAAUCUGCCCUCAGAGCUCGAGAACAUCUUCGGAUGCAGAGGAGGCAGGCUUCGGUGGAGCGAUAGCGCCAACGUCCUCAACCUCCAAUGCAUCCCAGCACAUGAUGAUGCCUGAAGAGCCUUGGUUUUUUG, for which the “polymerase ribozyme fitness (log ratio)” value is -2.98.

Turning to GACCAAUCUGCCCUCAGAGCUCGAGAACAUCUUCGGAUGCAGAGGAGGCAGGCUUCGGUGUCGCGAUAGCGCCAACGUCCUCAACCUCCAAUGCAUCCCACCACAUGAUGAUCCCUGAAGAGCCUUGGUUUUUUG, the “polymerase ribozyme fitness (log ratio)” value was -1.82.

As to GACCAAUCUGCCCUCAGAGCUCGAGAACAUCUUCGGAUGCAGAGGAGGCAGGCUUCGGUGGAGCGAUAGCGCGAACGUCCUCAACCUCCAAUGCAUCCCACCACAUGAUGAUGCCUCAAGAGCCUUGGGUUUUUG, the “polymerase ribozyme fitness (log ratio)” value was -6.43.

With GACCAAUCUGCCCUCAGAGCUCGAGAACAUCUUCGGAUGCAGAGGAGGCAGGCUUCGGUGGAGCGAUAGCGCCAACGUACUCAACCUCCAAUGCAUCCCACCACAUGAUGAUGCCUGAAGAGCCUUGGUUUUUUG, the “polymerase ribozyme fitness (log ratio)” value was -3.89.

For GACCAAUCUGCCCUCAGAGCUCGAGAACAUCUUCGGAUGCAGAGGAGGCAGGCUUCGGUGGAGCGAUAGCGCCAACGUUCUCAACCUCCAAUGCAUCCCACCACAUGAUGAUGCCUGAAGAGCCUUGGUUUUUUG, the “polymerase ribozyme fitness (log ratio)” value was -0.345.

In the case of GACCAAUCUGCCCUCAGAGCUCGAGAACAUCUUCGGAUGCAGAGGAGGCAGGCUUCGGUGUCGCGAUAGCGCCAACGCCCUCAACCUCCAAUGCAUCCCACCACAUGAUGAUCCCUGAAGAGCCUUGGUGUUUUG, the “polymerase ribozyme fitness (log ratio)” value was -2.86.

Regarding GACCAAUCUGCCCUCAGAGCUCGAGAACAUCUUCGGAUGCAGAGGAGGCAGGCUUCGGUGGAGCGAUAGCGCCAACGUCCUCAACCUCCAAUGCAUCCUACCACAUGAUGAUGCCUGAAGAGCAUUGGUUUUUUG, the “polymerase ribozyme fitness (log ratio)” value was -4.32.

For the variant GACCAAUCUGCCCUCAGAGCUCGAGAACAUCUUCGGAUGCAGAGGAGGCAGGCUUCGGUGGAGCGAUAGCGGCAACGUCCUCAACCUCCAAUGCAUCCCACCACAUGAUGAUGCCUGAAGAGCCUUGGUUUUUUG, the “polymerase ribozyme fitness (log ratio)” value is -2.09.

For GACCAAUCUGCCCUCAGAGCUCGAGAACAUCUUCGGAUGCAGAGGAGGCAGGCUUCGGUGGAGCGAUAGCGUCAACGUCCUCAACCUCCAAUGCAUCCCACCACAUGAUGAUGCCUGAAGAGCCUUGGUUUUUUG, the “polymerase ribozyme fitness (log ratio)” value is -1.74.

For GACCAAUCUGCCCUCAGAGCUCGAGAACAUCUUCGGAUGCAGAGGAGGCAGGCUUCGGUGGAGCGAUAGCGCCAACGUCCUUAACCUCCAGUGCAUCCCAGCACAUGAUGAUGCCUGAAGAGUCUUGUUUUUUUG, the “polymerase ribozyme fitness (log ratio)” value was -3.86.

With GACCAAUCUGCCCUCAGAGCUCGAGAACAUCUUCGGAUGCAGAGGAGGCAGGCUUCGGUGUCGCGAUAGCGCCAACGUCCAUAACCUCCAAUGCAUCCCACCACAUGAUGAUGCCUGAGGAUCCAUGGCUUUUUG, the “polymerase ribozyme fitness (log ratio)” value was -1.8.

Regarding GACCAAUCUGCCCUCAGAGCUCGAGAACAUCUUCGGAUGCAGAGGAGGCAGGCUUCGGUGUCGCGAUAGCGCCAACGUCCUCAACCCCCAAUGCAUCCCACCACAUGAUGAUGCCUGAAGAGCCUUGGUUUUUUG, the “polymerase ribozyme fitness (log ratio)” value came to 0.519.

On to GACCAAUCUGCCCUCAGAGCUCGAGAACAUCUUCGGAUGCAGAGGAGGCAGGCUUCGGUGGAGCGAUAGCGCCAACGUCCUCAACCUCCAAUGCAUCUCACCACAUGAUGAUGCCUGAAGAGCCUUGGUUUUUUG, for which the “polymerase ribozyme fitness (log ratio)” value was -2.2.

Take GACCAAUCUGCCCUCAGAGCUCGAGAACAUCUUCGGAUGCAGAGGAGGCAGGCUUCGGUGGAGCGAUAGCGCCAACGUCCUCAACCUCCAAUGCAUCCCACCACAUGAUGAUGCCUGCAGAGCCUUGGUUUUUUG: the “polymerase ribozyme fitness (log ratio)” value is -2.96.

On to GACCAAUCUGCCCUCAGAGCUCGAGAACAUCUUCGGAUGCAGAGGAGGCAGGCUUCGGUGUCGCGAUAGCGCCAACGUCCUCAACCUCCAAUGCAUCCCACCACAUGAUGAUGCCUGAAGAGCCUUCGUUUUUUG, for which the “polymerase ribozyme fitness (log ratio)” value is -0.698.

Regarding GACCAAUCUGCCCUCAGAGCUCGAGAACAUCUUCGGAUGCAGAGGAGGCAGGCUUCGGUGUCGCGAUAGCGCCAACGUCCUCAACCUCCAAUGCAUCCCACCACAUGAUUAUGCCUGAAGAGCCUUGGUUUUUUG, the “polymerase ribozyme fitness (log ratio)” value is -0.117.

GACCAAUCUGCCCUCAGAGCUCGAGAACAUCUUCGGAUGCAGAGGAGGCAGGCUUCGGUGUCGCGAUAGCGCCAACGUCCUCAACCUCCAAUGCAUCCCACCACAUGAUGAUGCCUGAAGAGCCUUGGUGUUUUG: the “polymerase ribozyme fitness (log ratio)” value was -0.614.

GACCAAUCUGCCCUCAGAGCUCGAGAACAUCUUCGGAUGCAGAGGAGGCAGGCUUCGGUGGAGCGAUAGCGCCAACUUCCUCAACCUCCAAUGCAUCCCACCACAUGAUGAUGCCUGAAGAGCCUUGGUUUUUUG: the “polymerase ribozyme fitness (log ratio)” value is -1.77.

GACCAAUCUGCCCUCAGAGCUCGAGAACAUCUUCGGAUGCAGAGGAGGCAGGCUUCGGUGGAGCGAUAGCGCCAACAUCCUCAACCUCCAAUGCAUCCCACCACAUGAUGAUGCCUGAAGAGCCUUGGUUUUUUG: the “polymerase ribozyme fitness (log ratio)” value was -2.78.

With GACCAAUCUGCCCUCAGAGCUCGAGAACAUCUUCGGAUGCAGAGGAGGCAGGCUUCGGUGUCGCGAUAGCGCCAACGUCCUCAACCUCCAAUGCAUCCCACCACAUGAUGAUGCCUGAAGAGCCUUGGUUUUUUU, the “polymerase ribozyme fitness (log ratio)” value is -1.65.

For GACCAAUCUGCCCUCAGAGCUCGAGAACAUCUUCGGAUGCAGAGGAGGCAGGCUUCGGUGGAGCGAUAGCGCCAACGUCCUCAACCUCCAAUGCAUCCCAGCAUAUGAUGAUGCCUGAAGAGCCUUGGUUUUUUG, the “polymerase ribozyme fitness (log ratio)” value is -2.15.

As for GACCAAUCUGCCCUCAGAGCUCGAGAACAUCUUCGGAUGCAGAGGAGGCAGGCUUCGGUGGAGCGAUAGCGCCAACGUCCUCAACCUCCAAUGCAUCCCACCACAUGAUGAUGCCUGAAAAGCCUUGGUUUUAUG, the “polymerase ribozyme fitness (log ratio)” value was -0.165.

Regarding GACCAAUCUGCCCUCAGAGCUCGAGAACAUCUUCGGAUGCAGAGGAGGCAGGCUUCGGUGUCGCGAUAGCGCCAACGUCCUCAACCUCCAAUGCAUCCCACCACAUGAUGACGCCUGAAGAGCCUUGGUUUUUUG, the “polymerase ribozyme fitness (log ratio)” value was 0.845.

For GACCAAUCUGCCCUCAGAGCUCGAGAACAUCUUCGGAUGCAGAGGAGGCAGGCUUCGGUGUCGCGAUAGCGCCAACGUCCUCAACCUCCAAUGCAUCCCACCACAUGAUGAUGCCUGAAGAGCCUUGGAUUUUUG, the “polymerase ribozyme fitness (log ratio)” value is -1.21.

Consider GACCAAUCUGCCCUCAGAGCUCGAGAACAUCUUCGGAUGCAGAGGAGGCAGGCUUCGGUGUCGCGAUAGCGCCAACGUCCUCAACCUCCAAUGCAUCCCACCACAUGAUGAUGCCUGAAGAGCCUUGGCUUUUUG, for which the “polymerase ribozyme fitness (log ratio)” value was -0.253.

As to GACCAAUCUGCCCUCAGAGCUCGAGAACAUCUUCGGAUGCAGAGGAGGCAGGCUUCGGUGGAGCGAUAGCGCCAACGUCCUAAACCUCCAAUGCAUCCCACCACAUGAUGAUGCCUGAAGAGCCUUGGUUUUUUG, the “polymerase ribozyme fitness (log ratio)” value was -0.246.

In the case of GACCAAUCUGCCCUCAGAGCUCGAGAACAUCUUCGGAUGCAGAGGAGGCAGGCUUCGGUGGAGCGAUAGCGCCAACGUCCUCAACCUCCAAUGCAUCCCACAACAUGAUGAUGCCUGAAGAGCCUUGGUUUUUUG, the “polymerase ribozyme fitness (log ratio)” value is -3.33.

Turning to GACCAAUCUGCCCUCAGAGCUCGAGAACAUCUUCGGAUGCAGAGGAGGCAGGCUUCGGUGGAGCGAUAGCGCCAACGUCCUCAACCUCCAAUGCAUCCCACCACAUGAUGAUGCCUGAAGUGCCUUGGUUUUUUG, the “polymerase ribozyme fitness (log ratio)” value amounted to 1.32.

As to GACCAAUCUGCCCUCAGAGCUCGAGAACAUCUUCGGAUGCAGAGGAGGCAGGCUUCGGUGUCGCGAUAGCGCCAACGUCCUCAACCUCCAACGCAUCCCACCACAUGAUGAUGCCUGAAGAGCCUUGGUUUUUUG, the “polymerase ribozyme fitness (log ratio)” value was -1.84.

In the case of GACCAAUCUGCCCUCAGAGCUCGAGAACAUCUUCGGAUGCAGAGGAGGCAGGCUUCGGUGGAGCGAUAGCGCCAACGUCCUCAACCUCAAAUGCAUCCCACCACAUGAUGAUGCCUGAAGAGCCUUGGUUUUUUG, the “polymerase ribozyme fitness (log ratio)” value is -3.57.
